Results on one substance are retold here after publication PMC11197336.

Experiment [1] has as its target SepM_control (Streptococcus mutans). The experiment can be described thus: MST; SepM (50 nM) labelled on its His-tag with RED-tris-NTA; CSP-21 in a 16-point serial dilution from 100 µM; PBS pH 7.5; 37 °C; Monolith NT.115, triplicate.
For experiment [2], the target named is SepM_G178D (Streptococcus mutans). The description is as above.
The target of experiment [3] is SepM_D221N (Streptococcus mutans). Described as above.
Experiment [4] deals with SepM_control (Streptococcus mutans). Kind of experiment: MST; SepM (50 nM) labelled on its His-tag with RED-tris-NTA; CSP-21 in a 16-point serial dilution from 100 µM; PBS pH 7.5; 25 °C; Monolith NT.115, triplicate.
Experiment [5] has as its target SepM_G178D (Streptococcus mutans). The description is as above.
The target of experiment [6] is SepM_D221N (Streptococcus mutans). The experiment is described as above.
Experiment [7] has as its target SepM_control (Streptococcus mutans). Kind of experiment: MST; SepM (50 nM) labelled on its His-tag with RED-tris-NTA; CSP-21 in a 16-point serial dilution from 100 µM; PBS pH 5.5; 25 °C; Monolith NT.115, triplicate.
Experiment [8] has as its target SepM_G178D (Streptococcus mutans). The experiment is described as above.
The target of experiment [9] is SepM_D221N (Streptococcus mutans). The description is as above.
The target in experiment [10] is SepM_control (Streptococcus mutans). The experiment can be described thus: MST; SepM (50 nM) labelled on its His-tag with RED-tris-NTA; CSP-21 in a 16-point serial dilution from 100 µM; PBS pH 5.5; 37 °C; Monolith NT.115, triplicate.
The target of experiment [11] is SepM_G178D (Streptococcus mutans). Described as above.
Experiment [12] deals with SepM_D221N (Streptococcus mutans). The description is as above.

For orientation: Kd means the equilibrium constant for the complex coming apart. Read a high Kd as weaker binding. For the substance CSP-21 (peptide), the Kd in experiment [1] is 29.3 µM; in experiment [2] it was 85 µM; in experiment [3] it was 28.7 µM; in experiment [4], 15.9 µM; in experiment [5], 3.02 µM; in [6], 20.8 µM. The dissociation constant Kd in experiment [7] stood at 33.1 µM; in [8], 44.2 µM; in [9], 8.25 µM; in experiment [10] it was 12.8 µM; in experiment [11], 21.4 µM; in experiment [12] it was 7.52 µM.
